From patent US20230212305A1 (published 2023)
Each block holds one binder with its values, some of them ahead of it.

What was measured:
[1] = biological target: T1, cynomolgus ABCG2 (Macaca fascicularis) (UniProt Q5MB13 1-654); assay: cell binding
T1 chain: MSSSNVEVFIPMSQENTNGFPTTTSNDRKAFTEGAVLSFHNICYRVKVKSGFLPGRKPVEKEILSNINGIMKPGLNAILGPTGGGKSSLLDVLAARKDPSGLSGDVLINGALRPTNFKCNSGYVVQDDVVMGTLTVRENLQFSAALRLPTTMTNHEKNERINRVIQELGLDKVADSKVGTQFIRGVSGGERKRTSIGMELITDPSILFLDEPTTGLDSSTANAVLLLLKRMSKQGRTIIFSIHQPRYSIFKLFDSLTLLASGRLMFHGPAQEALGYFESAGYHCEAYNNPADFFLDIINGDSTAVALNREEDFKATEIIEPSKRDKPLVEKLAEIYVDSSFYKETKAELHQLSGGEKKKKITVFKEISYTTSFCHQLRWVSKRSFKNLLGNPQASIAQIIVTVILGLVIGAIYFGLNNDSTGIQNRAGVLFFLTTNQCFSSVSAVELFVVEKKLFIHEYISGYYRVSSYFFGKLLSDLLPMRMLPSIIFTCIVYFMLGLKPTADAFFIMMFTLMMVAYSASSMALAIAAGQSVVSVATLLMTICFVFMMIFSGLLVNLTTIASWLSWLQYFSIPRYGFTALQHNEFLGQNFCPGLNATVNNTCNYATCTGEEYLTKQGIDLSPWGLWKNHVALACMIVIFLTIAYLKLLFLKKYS

human ABCG2 [2] = biological target: T2, human ABCG2 (UniProt Q9UNQ0 1-655); assay: cell binding
T2 chain: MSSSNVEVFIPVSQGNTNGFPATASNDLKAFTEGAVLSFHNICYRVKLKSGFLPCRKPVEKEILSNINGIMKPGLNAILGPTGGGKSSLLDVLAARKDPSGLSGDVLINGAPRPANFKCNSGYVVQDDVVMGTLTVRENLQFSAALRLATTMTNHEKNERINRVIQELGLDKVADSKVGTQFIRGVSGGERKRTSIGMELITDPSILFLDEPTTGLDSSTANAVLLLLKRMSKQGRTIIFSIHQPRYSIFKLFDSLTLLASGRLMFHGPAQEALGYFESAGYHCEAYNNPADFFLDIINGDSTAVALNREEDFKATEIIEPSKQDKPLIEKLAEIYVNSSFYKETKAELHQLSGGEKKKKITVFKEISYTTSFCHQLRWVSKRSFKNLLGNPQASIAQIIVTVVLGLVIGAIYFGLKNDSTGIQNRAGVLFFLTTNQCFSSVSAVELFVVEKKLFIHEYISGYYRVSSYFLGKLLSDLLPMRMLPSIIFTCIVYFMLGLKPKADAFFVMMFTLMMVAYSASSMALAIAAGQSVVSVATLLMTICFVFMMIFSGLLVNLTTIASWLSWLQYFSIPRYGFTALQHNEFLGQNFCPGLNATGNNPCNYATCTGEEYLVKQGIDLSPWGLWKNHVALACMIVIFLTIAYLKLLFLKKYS

[3] = biological target: T1, cynomolgus ABCG2 (Macaca fascicularis); assay: FACS binding to 293T cells
human ABCG2 [4] = biological target: T2, human ABCG2; assay: FACS binding to 293T cells
G2_709 = assay: FACS binding to 293T cells
G2_336 = assay: FACS binding to 293T cells
G2_377 = assay: FACS binding to 293T cells
G2_656 = assay: FACS binding to 293T cells
G2_418 = assay: FACS binding to 293T cells
G2_639 = assay: FACS binding to 293T cells
G2_745 = assay: FACS binding to 293T cells
G2_620 = assay: FACS binding, 293T-G2OX cells
h5D3 [5] = assay: FACS binding, 293T-G2OX cells
h5D3 [6] = assay: FACS cell binding
KNJY-G2-333H = assay: FACS cell binding
h5D3 [7] = assay: FACS cell binding; remark: listed apart in the source

EC50 [1]: 0.065 µM
EC50 (human ABCG2 [2]): 0.027 µM
Kd [3]: 0.0171 µM
Kd (human ABCG2 [4]): 0.0059 µM
B1: G2.643 mouse (antibody, V domains shown)
VH: VNLVESGPELVKPGTSVKISCKASGYRFTSYYVHWVKQRPGQGLEWIGWIFPGSDNTKYNEKFKGKATLTADTSSSTAYMQLSSLTSEDSAVYFCASIYYGYDGTLYFDYWGQGTSVTVSS
VL: DIVMTQSHTFMSTSVGDRVSVTCKASQNVGNNVAWYQQKPGQSPNALIYSASYRYSGVPDRFTGSGSGTDFTLTISNVQSEDLAEYFCQQYDRYPLTFGGGTKLEIK

Kd (G2_709): 0.0206 µM
Kd (G2_336): 0.0282 µM
Kd (G2_377): 0.0167 µM
Kd (G2_656): 0.0368 µM
Kd (G2_418): 0.059 µM
Kd (G2_639): 0.0468 µM
Kd (G2_745): 0.0233 µM
Kd (G2_620): 0.0158 µM
Kd (h5D3 [5]): 0.00299 µM
B2: hG2 (other)
chain: T2 chain

Kd (h5D3 [6]): 0.00312 µM
Kd (KNJY-G2-333H): 0.0075 µM
Kd (h5D3 [7]): 0.081 µM
B3: ABCG2 (other)
chain: T2 chain
